Source: patent US20100081795A1 (Bayer, published 2010)

Target: T1, purified, native RG1 protein produced in transfected BHK cells (human, UniProt Q9BUD6 27-331)
T1 construct: also called BHK-RG1; nRG1
T1 chain: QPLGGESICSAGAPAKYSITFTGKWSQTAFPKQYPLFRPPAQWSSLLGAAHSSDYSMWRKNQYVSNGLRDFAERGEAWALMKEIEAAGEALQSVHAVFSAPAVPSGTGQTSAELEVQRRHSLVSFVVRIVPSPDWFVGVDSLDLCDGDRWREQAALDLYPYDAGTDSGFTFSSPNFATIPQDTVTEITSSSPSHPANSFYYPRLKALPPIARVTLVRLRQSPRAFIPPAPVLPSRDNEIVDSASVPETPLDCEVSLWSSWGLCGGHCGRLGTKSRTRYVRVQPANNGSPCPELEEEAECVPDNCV
Experiment: BIAcore SPR; mab captured on anti-human IgG Fc, soluble BHK-RG1 12.5-400 nM; 1:1 Langmuir fit
Protocol: Kinetic constants (KD, kₐ and kd) of mab binding to native RG1 protein were determined by BIAcore using a capture format in which soluble, native RG1 protein was bound to immobilized mab on a sensor chip. ImmunoPure rabbit anti-human IgGFc (Pierce, 31142) was covalently immobilized to the Sensor Chip CM5 (Biacore, BR-1000-12) using standard amine coupling methods. 100 ug/ml antibody diluted in 10 mm acetate, pH 4.0 was used at 5 ul/min. HBS-EP (Biacore, BR-1001-88) was used as mobile phase. Unreacted sites were blocked with ethanolamine. Mabs were diluted to 200 nM with HBS and 50 μl was injected per cycle at 10 ul/min. Serial dilutions of BHK-RG1 (12.5-400 nM) were bound to the immobilized mab. Dissociation kinetics were measured immediately after the antigen injection was completed at 20 μl/min for 8 minutes. The surface was regenerated following each cycle using 25 ul of 10 mm glycine, pH 1.8 and then washed with HBS.
Typically, five concentrations and a media control were run. Data were fit to a 1:1 Langmuir model using the software provided by the instrument manufacturer (BIAevaluation 3.0), and kinetic constants were calculated. Equilibrium constants were in the nanomolar range with favorable dissociation rates (10⁻⁴ s⁻¹).

Kd: 8.4 nM
koff: 0.00023 s⁻¹
kon: 29000 M⁻¹ s⁻¹
B1: human RG1 monoclonal antibody B (antibody, V domains shown)
VH: EVQLVQSGGGLVHPGGSLRLSCAGSGFTFSSYVMHWLRQAPGKGLEWVSVIGTGGVTHYADSVKGRFTISRDNAKNSLYLQMNSLRAEDMAMYYCARWGYYGSGSYENDAFDIWGQGTMVTVSS
VL: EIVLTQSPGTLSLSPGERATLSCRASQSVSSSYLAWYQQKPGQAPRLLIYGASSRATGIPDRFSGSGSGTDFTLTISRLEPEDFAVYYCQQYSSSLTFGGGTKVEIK
notes: Hybridoma-derived human antibody with a kappa light chain; also called Mab B
